Measured values reported in publication PMC6370948, “Complement Dependent and Independent Interaction Between Bovine Conglutinin and Mycobacterium bovis BCG: Implications in Bovine Tuberculosis” (Frontiers in Immunology, 2018).

Molecular target: the molecule itself
Assay: cross-linking; 20 μg/ml purified rfBC with BS3 (5 μl of 1 mM added to 100 μl), room temperature, 0-64 min, stopped with 20 mM Tris-HCl pH 7.5; SDS-PAGE and Coomassie staining

B1: recombinant truncated form of bovine conglutinin (rfBC), composed of the α-helical neck region and the CRD (domain or fragment, bovine (Bos taurus), UniProt P23805 217-371, looked up)
chain: EVNALKQRVTILDGHLRRFQNAFSQYKKAVLFPDGQAVGEKIFKTAGAVKSYSDAEQLCREAKGQLASPRSSAENEAVTQMVRAQEKNAYLSMNDISTEGRFTYPTGEILVYSNWADGEPNNSDEGQPENCVEIFPDGKWNDVPCSKQLLVICEF
notes: bovine conglutinin, neck region (amino acids 197-224) and C-terminal CRD (amino acids 225-351); numbers count on: the mature protein; also called recombinant fragment of conglutinin; recombinant bovine conglutinin
  stoichiometry N: 3
